Test results: patent US20240174727A1, “LONG-ACTING NATRIURETIC PEPTIDES AND USES THEREOF” (Eli Lilly and Company, priority 2022, published 2024)

T1: rat NPRA (rat, UniProt P18910 29-1057)
T1 sequence (looked up): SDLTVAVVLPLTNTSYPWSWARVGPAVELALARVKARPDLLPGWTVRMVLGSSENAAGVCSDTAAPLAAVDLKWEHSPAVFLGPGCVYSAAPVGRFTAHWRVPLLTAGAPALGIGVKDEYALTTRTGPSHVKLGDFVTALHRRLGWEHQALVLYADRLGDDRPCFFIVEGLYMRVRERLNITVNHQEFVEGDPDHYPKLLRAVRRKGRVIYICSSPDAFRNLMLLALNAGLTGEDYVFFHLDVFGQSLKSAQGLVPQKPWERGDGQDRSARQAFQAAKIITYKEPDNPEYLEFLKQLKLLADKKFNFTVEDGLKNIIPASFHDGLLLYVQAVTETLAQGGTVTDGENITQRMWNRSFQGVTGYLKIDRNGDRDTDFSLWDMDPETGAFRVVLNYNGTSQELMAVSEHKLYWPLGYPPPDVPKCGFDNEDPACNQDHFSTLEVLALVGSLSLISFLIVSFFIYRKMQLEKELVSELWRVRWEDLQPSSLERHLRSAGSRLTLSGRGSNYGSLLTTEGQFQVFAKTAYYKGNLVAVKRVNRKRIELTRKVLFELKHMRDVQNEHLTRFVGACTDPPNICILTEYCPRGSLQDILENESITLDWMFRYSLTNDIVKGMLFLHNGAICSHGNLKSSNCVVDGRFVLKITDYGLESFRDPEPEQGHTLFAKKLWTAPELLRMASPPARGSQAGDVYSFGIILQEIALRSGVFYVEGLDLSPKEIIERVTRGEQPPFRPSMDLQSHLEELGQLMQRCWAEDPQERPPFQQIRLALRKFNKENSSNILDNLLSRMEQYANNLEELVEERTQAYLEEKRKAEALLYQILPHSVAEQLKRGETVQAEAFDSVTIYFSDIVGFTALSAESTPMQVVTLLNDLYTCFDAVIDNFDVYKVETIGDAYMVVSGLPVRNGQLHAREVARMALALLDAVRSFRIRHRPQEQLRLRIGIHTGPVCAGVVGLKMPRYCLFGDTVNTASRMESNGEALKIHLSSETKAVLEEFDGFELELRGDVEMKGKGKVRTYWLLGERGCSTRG

T2: human NPRA (human, UniProt P16066 33-1061)
T2 sequence (looked up): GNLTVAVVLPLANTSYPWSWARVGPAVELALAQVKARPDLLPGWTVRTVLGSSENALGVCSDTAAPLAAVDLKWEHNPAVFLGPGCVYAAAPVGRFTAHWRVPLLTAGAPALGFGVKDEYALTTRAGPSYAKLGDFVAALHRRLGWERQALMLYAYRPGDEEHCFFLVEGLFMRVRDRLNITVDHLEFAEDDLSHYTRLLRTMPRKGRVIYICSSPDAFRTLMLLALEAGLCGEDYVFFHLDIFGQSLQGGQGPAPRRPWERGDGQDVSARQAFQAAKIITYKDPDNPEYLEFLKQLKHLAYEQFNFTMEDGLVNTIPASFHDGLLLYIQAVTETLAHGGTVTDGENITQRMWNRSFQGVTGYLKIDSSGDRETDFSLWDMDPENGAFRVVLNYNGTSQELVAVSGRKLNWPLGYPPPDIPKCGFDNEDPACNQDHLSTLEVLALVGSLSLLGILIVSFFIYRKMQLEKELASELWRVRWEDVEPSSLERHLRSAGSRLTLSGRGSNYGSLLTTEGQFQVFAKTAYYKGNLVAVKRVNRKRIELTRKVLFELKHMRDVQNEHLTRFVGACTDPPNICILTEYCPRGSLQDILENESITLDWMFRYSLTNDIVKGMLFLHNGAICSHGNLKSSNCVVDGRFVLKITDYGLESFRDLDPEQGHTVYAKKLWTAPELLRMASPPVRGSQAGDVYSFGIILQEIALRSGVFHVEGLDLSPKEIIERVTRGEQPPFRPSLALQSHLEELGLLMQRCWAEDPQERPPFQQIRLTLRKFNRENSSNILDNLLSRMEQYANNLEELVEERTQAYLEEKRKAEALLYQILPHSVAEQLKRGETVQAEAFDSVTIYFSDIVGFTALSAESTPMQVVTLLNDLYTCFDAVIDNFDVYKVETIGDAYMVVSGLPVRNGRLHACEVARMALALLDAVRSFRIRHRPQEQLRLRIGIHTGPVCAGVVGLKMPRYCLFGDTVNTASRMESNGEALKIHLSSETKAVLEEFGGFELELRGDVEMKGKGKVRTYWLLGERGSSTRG

B1: HOOC-(CH2)18-CO-(γGlu)-EKEKEKG-(AEEA)8-S-4Pal-RRSS[CFGKRIDRIGHYSGLGC]PSFRHGSPSSGAPPPS-NH2 (peptide)
peptide: SXRRSSCFGKRIDRIGHYSGLGCPSFRHGSPSSGAPPPS
modifications: N-terminus acylated with HOOC-(CH2)18-CO-(γGlu)-; (AEEA)8 after EKEKEKG; 4Pal; thioacetal linkage between the two bracketed Cys; C-terminal amide
B2: HOOC-(CH2)18-CO-(γGlu)-EKEKEKG-(AEEA)8-EK-βAla-RSS[CFGKRIDRIGHYSGLGC]PSFRHGSPSSGAPPPS-NH2 (peptide)
peptide: EKXRSSCFGKRIDRIGHYSGLGCPSFRHGSPSSGAPPPS
modifications: N-terminus acylated with HOOC-(CH2)18-CO-(γGlu)-; (AEEA)8 after EKEKEKG; βAla; thioacetal linkage between the two bracketed Cys; C-terminal amide
B3: HOOC-(CH2)18-CO-(γGlu)-EKEKEKG-PEG24-S-4Pal-RRSS[CFGKRIDRIGHQSGLGC]PSFRHGGKSSGAPPPS-NH2 (peptide)
peptide: SXRRSSCFGKRIDRIGHQSGLGCPSFRHGGKSSGAPPPS
modifications: N-terminus acylated with HOOC-(CH2)18-CO-(γGlu)-; PEG24 after EKEKEKG; 4Pal; thioacetal linkage between the two bracketed Cys; C-terminal amide
B4: HOOC-(CH2)18-CO-(γGlu)-EKEKEKG-PEG24-S-4Pal-RRSS[CFGKRIDRIGHYSGLGC]PSFRHGGKSSGAPPPS-NH2 (peptide)
peptide: SXRRSSCFGKRIDRIGHYSGLGCPSFRHGGKSSGAPPPS
modifications: N-terminus acylated with HOOC-(CH2)18-CO-(γGlu)-; PEG24 after EKEKEKG; 4Pal; thioacetal linkage between the two bracketed Cys; C-terminal amide
B5: HOOC-(CH2)18-CO-(γGlu)-EKEKEKG-(AEEA)6-S-4Pal-RRSS[CFGKRIDRIGHYSGLGC]PSFRHGSPSSGAPPPS-NH2 (peptide)
peptide: SXRRSSCFGKRIDRIGHYSGLGCPSFRHGSPSSGAPPPS
modifications: N-terminus acylated with HOOC-(CH2)18-CO-(γGlu)-; (AEEA)6 after EKEKEKG; 4Pal; thioacetal linkage between the two bracketed Cys; C-terminal amide
B6: HOOC-(CH2)18-CO-(γGlu)-EKEKEKG-PEG24-S-4Pal-RRSS[CFGKRIDRIGHYSGLGC]PSFRHGSPSSGAPPPS-NH2 (peptide)
peptide: SXRRSSCFGKRIDRIGHYSGLGCPSFRHGSPSSGAPPPS
modifications: N-terminus acylated with HOOC-(CH2)18-CO-(γGlu)-; PEG24 after EKEKEKG; 4Pal; thioacetal linkage between the two bracketed Cys; C-terminal amide
B7: HOOC-(CH2)18-CO-(γGlu)-EKEKEKG-(AEEA)6-EKPRSS[CFGKRIDRIGHYSGLGC]PSFRHSGSPSSGAPPPSG-NH2 (peptide)
peptide: EKPRSSCFGKRIDRIGHYSGLGCPSFRHSGSPSSGAPPPSG
modifications: N-terminus acylated with HOOC-(CH2)18-CO-(γGlu)-; (AEEA)6 after EKEKEKG; thioacetal linkage between the two bracketed Cys; C-terminal amide
B8: HOOC-(CH2)18-CO-(γGlu)-EKEKEKG-(AEEA)6-S-4Pal-RRSS[CFGKRIDRIGHYSGLGC]PSFRHGSGSPSSGAPPPSG-NH2 (peptide)
peptide: SXRRSSCFGKRIDRIGHYSGLGCPSFRHGSGSPSSGAPPPSG
modifications: N-terminus acylated with HOOC-(CH2)18-CO-(γGlu)-; (AEEA)6 after EKEKEKG; 4Pal; thioacetal linkage between the two bracketed Cys; C-terminal amide
B9: HOOC-(CH2)18-CO-(γGlu)-EKEKEKG-(AEEA)6-EK-βAla-RSS[CFGKRIDRIGHQSGLGC]PSFRHGSPSSGAPPPS-NH2 (peptide)
peptide: EKXRSSCFGKRIDRIGHQSGLGCPSFRHGSPSSGAPPPS
modifications: N-terminus acylated with HOOC-(CH2)18-CO-(γGlu)-; (AEEA)6 after EKEKEKG; βAla; thioacetal linkage between the two bracketed Cys; C-terminal amide
B10: HOOC-(CH2)18-CO-(γGlu)-EKEKEKG-(AEEA)8-EK-βAla-RSS[CFGKRIDRIGHQSGLGC]PSFRHGSPSSGAPPPS-NH2 (peptide)
peptide: EKXRSSCFGKRIDRIGHQSGLGCPSFRHGSPSSGAPPPS
modifications: N-terminus acylated with HOOC-(CH2)18-CO-(γGlu)-; (AEEA)8 after EKEKEKG; βAla; thioacetal linkage between the two bracketed Cys; C-terminal amide
B11: HOOC-(CH2)18-CO-(γGlu)-EKEKEKG-(AEEA)6-EKPRSS[CFGKRIDRIGHYSGLGC]PSFRHGSPSSGAPPPS-NH2 (peptide)
peptide: EKPRSSCFGKRIDRIGHYSGLGCPSFRHGSPSSGAPPPS
modifications: N-terminus acylated with HOOC-(CH2)18-CO-(γGlu)-; (AEEA)6 after EKEKEKG; thioacetal linkage between the two bracketed Cys; C-terminal amide

Assays:
rat NPRA = target: T1, rat NPRA; test: cell-based or functional assay
human NPRA = target: T2, human NPRA; test: cell-based or functional assay

Row | Binder | cGMP Assay (EC50, pM) w/BSA, rNPRA (rat NPRA) [pM] | cGMP Assay (EC50, pM) w/Casein, rNPRA (rat NPRA) [pM] | cGMP Assay (EC50, pM) w/BSA, hNPRA (human NPRA) [pM] | cGMP Assay (EC50, pM) w/Casein, hNPRA (human NPRA) [pM]
1 | B1 | 149000 | 3780 | 3770 | 646
2 | B2 | – | 11200 | – | 497
3 | B3 | 276000 | 16800 | 2560 | 488
4 | B4 | 89100 | 5320 | 2210 | 580
5 | B5 | 149000 | 6360 | 6020 | 621
6 | B6 | 100000 | 5650 | 2830 | 726
7 | B7 | 205000 | 3830 | 8970 | 745
8 | B8 | 200000 | 6040 | 9170 | 922
9 | B9 | 623000 | 17900 | 12800 | 493
10 | B10 | 696000 | 25400 | 10000 | 542
11 | B11 | 150000 | 3770 | 6380 | 490
